# Legend:
# [1] = rat; for Relative increase of PS vs ALB, blood nerve barrier / Relative increase of Vp vs ALB, blood nerve barrier / Residual endoneurial plasma volume (Vp) of the blood nerve barrier / PS values across the blood nerve and blood brain barrier: in vivo; for Permeability coefficient-surface area product (PS) of the blood nerve barrier: not told, iv
# Procedure: (§1) Male Sprague-Dawley rats (24-weeks-old) (460-500 g) were obtained from Bio Lab (St. Paul) and were used to determine the PS and Vp measurements. All animals were kept for a minimum of 3 days under standard housing conditions and feeding schedules prior to the experiments.
# Briefly, a bolus of PBS containing ^125 I labelled carrier molecule was injected rapidly into the catheterized brachial vein of pentobarbital anesthetized rats. Blood was sampled during the next 30, 60, or 240 minutes from the brachial artery, depending on the carrier molecule being evaluated. Prior to the sacrifice of the animal at time sequences of 60 or 120 seconds, the second isotope-labelled carrier molecule (^131 I) was administered intravenously to serve as the residual plasma volume indicator (Vp).
# After the final blood sample was collected, the sciatic nerves were rapidly removed and desheathed. Similarly, the brain was removed followed by the meninges. The brain was dissected into the cortex, caudal putamen, hippocampus, thalamus, brain stem, and cerebellum. The tissue was then lyophilized, and the dry weight was determined with a microbalance. These weights were then converted to their respective wet weights with wet weight/dry weight ratios previously determined for desheathed rat sciatic nerve and for the different brain regions. Tissue and plasma samples were assayed for ^125 I and ^131 I radioactivity in a 2-channel gamma counter. Radioactivity was corrected for crossover of ^131 I activity into the ^125 I channel and background activity. The Vp and PS measurements were calculated as described previously in Poduslo et al., Proc. Natl. Acad. Sci. U.S.A., 89, 2218 (1992). […] Statistical evaluations were done using Student's two-tailed paired t-test. Significance was accepted at the p<0.05 level.
# [2] = rat, in vivo
# Procedure: as §1
# Briefly, a bolus of PBS containing ^125 I labelled carrier molecule was injected rapidly into the catheterized brachial vein of pentobarbital anesthetized rats. Blood was sampled during the next 30, 60, or 240 minutes from the brachial artery, depending on the carrier molecule being evaluated. […]
# After the final blood sample was collected, the sciatic nerves were rapidly removed and desheathed. […] The tissue was then lyophilized, and the dry weight was determined with a microbalance. These weights were then converted to their respective wet weights with wet weight/dry weight ratios previously determined for desheathed rat sciatic nerve and for the different brain regions. Tissue and plasma samples were assayed for ^125 I and ^131 I radioactivity in a 2-channel gamma counter. Radioactivity was corrected for crossover of ^131 I activity into the ^125 I channel and background activity. The Vp and PS measurements were calculated as described previously in Poduslo et al., Proc. Natl. Acad. Sci. U.S.A., 89, 2218 (1992). […]
substance,measurement,setting,value
calmodulin,"Relative increase of PS vs ALB, blood nerve barrier",[1],211.3
same,"Relative increase of Vp vs ALB, blood nerve barrier",[1],0.9
same,Residual endoneurial plasma volume (Vp) of the blood nerve barrier,[1],1.66 ± 0.32 µL/g
same,Permeability coefficient-surface area product (PS) of the blood nerve barrier,[1],21.34 ± 3.40 ml/g/sec × 10^6
ceruloplasmin,PS values across the blood nerve and blood brain barrier,[1],1-10 ×10^-6 ml/g/sec
same,"Relative increase of PS vs ALB, blood nerve barrier",[1],82.4
same,"Relative increase of Vp vs ALB, blood nerve barrier",[1],1.0
same,Residual endoneurial plasma volume (Vp) of the blood nerve barrier,[1],1.98 ± 0.38 µL/g
cytochrome c,PS values across the blood nerve and blood brain barrier,[1],1-10 ×10^-6 ml/g/sec
same,"Relative increase of PS vs ALB, blood nerve barrier",[1],73.6
same,"Relative increase of Vp vs ALB, blood nerve barrier",[1],1.0
same,Residual endoneurial plasma volume (Vp) of the blood nerve barrier,[1],1.96 ± 0.32 µL/g
same,Permeability coefficient-surface area product (PS) of the blood nerve barrier,[1],7.43 ± 3.68 ml/g/sec × 10^6
hemoglobin,PS values across the blood nerve and blood brain barrier,[1],1-10 ×10^-6 ml/g/sec
same,"Relative increase of PS vs ALB, blood nerve barrier",[1],65.3
same,"Relative increase of Vp vs ALB, blood nerve barrier",[1],1.0
same,Residual endoneurial plasma volume (Vp) of the blood nerve barrier,[1],1.91 ± 0.35 µL/g
same,Permeability coefficient-surface area product (PS) of the blood nerve barrier,[1],6.60 ± 1.33 ml/g/sec × 10^6
lysozyme,PS values across the blood nerve and blood brain barrier,[1],1-10 ×10^-6 ml/g/sec
same,"Relative increase of PS vs ALB, blood nerve barrier",[1],66.4
same,"Relative increase of Vp vs ALB, blood nerve barrier",[1],1.3
same,Residual endoneurial plasma volume (Vp) of the blood nerve barrier,[1],2.57 ± 0.52 µL/g
same,Permeability coefficient-surface area product (PS) of the blood nerve barrier,[1],6.71 ± 1.65 ml/g/sec × 10^6
substance P [SP],PS values in the different brain regions,[2],27.68-36.53 ×10^-6 ml/g/s
same,Vp values in the different brain regions,[2],11.03 to 21.29 µL/g
same,Residual endoneurial plasma volume (Vp) of the blood nerve barrier,[1],14.87 ± 3.53 µL/g
ubiquitin,"Relative increase of PS vs ALB, blood nerve barrier",[1],228.9
same,"Relative increase of Vp vs ALB, blood nerve barrier",[1],0.9
same,Residual endoneurial plasma volume (Vp) of the blood nerve barrier,[1],1.84 ± 0.51 µL/g

# From patent US5604198A, “Method to enhance permeability of the blood/brain blood/nerve barriers to therapeutic agents” (priority 1994, dated 1997)
